Experimental findings from patent publication US20210017226A1 (PEPTION, published 2021) are described below.

Ends that are not written are not given here.

For experiment [1], the target named is T1, purified horseradish peroxidase (HRP) protein (horseradish, UniProt P00433 31-338).
T1 sequence (looked up): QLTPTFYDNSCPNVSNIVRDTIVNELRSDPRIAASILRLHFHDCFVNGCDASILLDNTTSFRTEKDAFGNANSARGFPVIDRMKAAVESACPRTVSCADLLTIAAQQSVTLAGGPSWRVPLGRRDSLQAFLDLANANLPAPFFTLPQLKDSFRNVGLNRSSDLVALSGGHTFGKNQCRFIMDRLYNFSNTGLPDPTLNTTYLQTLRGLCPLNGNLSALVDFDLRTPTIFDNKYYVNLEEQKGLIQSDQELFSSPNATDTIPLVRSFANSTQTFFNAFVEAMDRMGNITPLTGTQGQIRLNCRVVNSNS
As to the kind of experiment: dot blot, HRP captured by V5C2-L-HRPC2 bound to immobilized PTD19, chromogenic substrate.

The target in experiment [2] is T2, PTD8 (Ec-AP_159-168), synthetic peptide LVAHVTSRKC (Escherichia coli).
T2 construct: also called control peptide (unrelated) in the Cas9 blots
T2 peptide: LVAHVTSRKC
As to the kind of experiment: dot blot, peptide spotted on NC membrane, anti-6His Ab-HRP detection.

Experiment [3] deals with T3, Cas9 protein without any tag (no tag), recombinant Streptococcus pyogenes Cas9 (Streptococcus pyogenes, UniProt Q99ZW2 1-1368).
T3 construct: also called Cas9 (no tag); tagless Cas9
As to the kind of experiment: dot blot (non-denatured) and western blot (denatured), anti-6His Ab-HRP detection. A general note: In western blotting, separated proteins are transferred to a membrane and probed.

Experiment [4] concerns the target T2, PTD8 (Ec-AP_159-168), synthetic peptide …. Kind of experiment: dot blot, AP fusion as 1st Ab, NBT/BCIP.
The target in experiment [5] is T4, PTD10 (Hs-PDGF-B_136-145), synthetic peptide IEIVRKKPIFC (human).
T4 peptide: IEIVRKKPIFC
Kind of experiment: dot blot, anti-6His Ab-HRP detection.

Experiment [6] addresses T2, PTD8 (Ec-AP_159-168), synthetic peptide …. As to the kind of experiment: dot blot, anti-6His Ab-HRP detection.

T3 sequence (Q99ZW2 whole entry): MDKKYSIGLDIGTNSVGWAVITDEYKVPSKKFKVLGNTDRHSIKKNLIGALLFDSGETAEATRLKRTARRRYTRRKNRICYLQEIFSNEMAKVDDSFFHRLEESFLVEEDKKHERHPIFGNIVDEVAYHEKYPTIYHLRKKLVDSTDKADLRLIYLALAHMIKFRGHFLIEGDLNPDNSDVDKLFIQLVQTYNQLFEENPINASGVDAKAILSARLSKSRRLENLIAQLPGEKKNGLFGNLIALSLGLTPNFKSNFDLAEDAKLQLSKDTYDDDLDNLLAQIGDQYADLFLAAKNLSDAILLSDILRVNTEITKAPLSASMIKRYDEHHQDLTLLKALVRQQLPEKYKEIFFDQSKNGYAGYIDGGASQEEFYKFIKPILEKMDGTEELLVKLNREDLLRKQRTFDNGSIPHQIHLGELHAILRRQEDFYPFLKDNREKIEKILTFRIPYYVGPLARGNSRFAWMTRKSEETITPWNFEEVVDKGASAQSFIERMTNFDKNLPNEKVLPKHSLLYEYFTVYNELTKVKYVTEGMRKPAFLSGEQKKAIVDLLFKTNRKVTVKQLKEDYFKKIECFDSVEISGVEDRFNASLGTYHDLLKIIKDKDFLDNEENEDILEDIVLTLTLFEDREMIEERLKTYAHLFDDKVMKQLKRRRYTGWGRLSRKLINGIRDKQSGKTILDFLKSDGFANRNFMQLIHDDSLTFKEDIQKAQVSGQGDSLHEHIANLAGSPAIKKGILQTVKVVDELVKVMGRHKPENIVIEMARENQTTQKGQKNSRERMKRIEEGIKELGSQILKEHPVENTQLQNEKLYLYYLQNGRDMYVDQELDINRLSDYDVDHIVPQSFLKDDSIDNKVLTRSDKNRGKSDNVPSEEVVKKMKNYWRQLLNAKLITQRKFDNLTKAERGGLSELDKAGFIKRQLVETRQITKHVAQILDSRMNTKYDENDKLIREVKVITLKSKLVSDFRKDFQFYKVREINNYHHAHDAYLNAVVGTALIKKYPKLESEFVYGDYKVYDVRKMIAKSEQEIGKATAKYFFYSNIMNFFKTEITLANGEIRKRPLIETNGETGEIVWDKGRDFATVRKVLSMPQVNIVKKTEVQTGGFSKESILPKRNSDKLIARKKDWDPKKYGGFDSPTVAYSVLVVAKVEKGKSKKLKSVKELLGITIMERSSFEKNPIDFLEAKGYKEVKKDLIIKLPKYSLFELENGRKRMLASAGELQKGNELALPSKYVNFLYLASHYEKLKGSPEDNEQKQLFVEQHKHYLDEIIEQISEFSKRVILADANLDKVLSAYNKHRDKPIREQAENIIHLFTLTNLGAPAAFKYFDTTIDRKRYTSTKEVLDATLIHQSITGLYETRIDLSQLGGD

B1: V5C2-L-HRPC2, purified polypeptide with two CAAP box dimer arms designed to interact with V5 epitope and HRP (designed binder)
chain: MSRKEARELCYPENGLEALIRSGGGSGGGSGGGSYYLRKRILCYPENQVLERSNEGSGSKLLEHHHHHH
On to B1, for which the binding result in experiment [1] is given as “binds”. LLQVDVILLCYPENLEQIKIRLFGSGSHHHHHH (designed binder, also: dimer, also called sAb dimer; CCAAP sAb dimer) [PTD14 (Sp-C9_CAA813-821PAPH), synthetic His-tagged CAAP oligopeptide dimer]: the binding result in experiment [2] is on record as “no binding”; in experiment [3], “binds”.

B2: C9-813-CAA2 (dimer, parallel-linker-antiparallel), recombinant CAAP oligopeptide-AP fusion protein (designed binder, not shown: small tags and cut ends; large carriers)
chain: MHHHHHHELLLSVEVQQLCYPENLEYLFIEKL
notes: also called rAb C9-813-CAA2; dimer construct
As for B2, in experiment [4], the binding result was “no binding”.

In the case of DLDYAQLRDKCYPENEDRLQSYDLDGSGSHHHHHH (designed binder, also: dimer, parallel and antiparallel, also called Anti-PDGF sAb), the binding result in experiment [5] is recorded as “binds”.

As for EYRLYLRALCYPENLSRAYLSYEGSGSHHHHHH (designed binder, also: dimer, parallel and antiparallel), the binding result in experiment [6] is reported as “binds”.

B3: PTD20 (2GS6H), synthetic linker-His-tag oligopeptide (peptide)
peptide: GSGSHHHHHH
notes: also called linker-His-tag only; negative control
As for B3, the binding result in experiment [5] and in experiment [6] was “no binding” each time.
